{
  "source": "patent US9145571B2",
  "about": "“Preparation method of human metabolites of simvastatin or lovastatin using bacterial cytochrome P450 and composition therefor” (priority 2009, dated 2015)",
  "key": {"[1]": {"target": "triple CYP102A1 mutant of R47L/F87V/L188Q (Priestia megaterium, UniProt P14779, F88V/L189Q/R48L)", "sequence (P14779 2-1049 R48L/F88V/L189Q)": "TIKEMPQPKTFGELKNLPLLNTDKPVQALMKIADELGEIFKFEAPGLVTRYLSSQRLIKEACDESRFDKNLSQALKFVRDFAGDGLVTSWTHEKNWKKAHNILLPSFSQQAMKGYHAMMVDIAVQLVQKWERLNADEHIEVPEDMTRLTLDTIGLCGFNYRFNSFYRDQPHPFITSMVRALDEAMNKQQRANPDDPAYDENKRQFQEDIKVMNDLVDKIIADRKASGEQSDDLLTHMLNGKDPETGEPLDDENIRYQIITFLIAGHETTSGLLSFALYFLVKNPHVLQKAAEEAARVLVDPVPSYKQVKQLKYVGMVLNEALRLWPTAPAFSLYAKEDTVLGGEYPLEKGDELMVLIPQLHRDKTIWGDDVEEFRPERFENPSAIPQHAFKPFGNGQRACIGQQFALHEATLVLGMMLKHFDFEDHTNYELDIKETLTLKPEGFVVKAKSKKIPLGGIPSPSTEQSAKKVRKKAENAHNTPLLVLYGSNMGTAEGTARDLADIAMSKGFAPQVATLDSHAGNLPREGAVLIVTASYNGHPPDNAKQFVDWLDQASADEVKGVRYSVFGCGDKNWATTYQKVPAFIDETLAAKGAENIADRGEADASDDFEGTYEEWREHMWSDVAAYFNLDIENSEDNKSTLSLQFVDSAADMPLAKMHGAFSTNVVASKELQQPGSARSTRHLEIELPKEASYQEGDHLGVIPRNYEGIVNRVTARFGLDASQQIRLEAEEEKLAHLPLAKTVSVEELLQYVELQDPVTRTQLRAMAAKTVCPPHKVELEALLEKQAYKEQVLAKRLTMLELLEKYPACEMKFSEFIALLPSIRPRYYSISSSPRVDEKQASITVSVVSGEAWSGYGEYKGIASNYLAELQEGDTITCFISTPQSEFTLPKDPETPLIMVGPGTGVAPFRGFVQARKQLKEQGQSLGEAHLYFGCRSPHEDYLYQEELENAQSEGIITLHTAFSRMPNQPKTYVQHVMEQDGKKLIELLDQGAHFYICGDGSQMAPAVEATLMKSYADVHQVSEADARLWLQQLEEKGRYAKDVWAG", "conditions": "cited from earlier work"}, "[2]": {"target": "T1, CYP102A1 mutant #17 (Priestia megaterium, UniProt P14779, E144G/E268V/E65G/F82I/F88V/L189Q/R48L)", "T1 construct": "made in house; host or cells: Escherichia coli DH5αF′-IQ (soluble cytosolic fraction)", "T1 sequence (P14779 2-1049 R48L/E65G/F82I/F88V/E144G/L189Q/E268V)": "as the sequence (P14779 2-1049 R48L/F88V/L189Q) above, with E64G, F81I, E143G, E267V counted along it", "assay_type": "biochemical, Bacillus megaterium", "conditions": "50 μM αNF", "protocol": "(§1) Reaction mixtures consists of 50 pmol P450, 100 mM potassium phosphate buffer (pH 7.4), a NADPH-generating system, and a substrate (100 μM of simvastatin or lovastatin) in the presence of αNF (2 to 50 μM).\n(§2) Products were analyzed by HPLC, as described above. In the case of human CYP3A4 activity assay, a control experiment of 50 pmol P450, 100 pmol NADPH-P450 reductase (CPR), 100 pmol cytocrhome b5, and 45 μM DLPC was used instead of 50 pmol CYP102A1."}, "[3]": {"target": "T2, CYP102A1 mutant #16 (Priestia megaterium, UniProt P14779, E144G/E268V/F82I/F88V/L189Q/R48L)", "T2 construct": "made in house; host or cells: Escherichia coli DH5αF′-IQ (soluble cytosolic fraction)", "T2 sequence (P14779 2-1049 R48L/F82I/F88V/E144G/L189Q/E268V)": "as the sequence (P14779 2-1049 R48L/F88V/L189Q) above, with F81I, E143G, E267V counted along it", "assay_type": "biochemical, Bacillus megaterium", "conditions": "50 μM αNF", "protocol": "as §1, §2"}, "[4]": {"assay": "Kinetic parameters of 6′β-hydroxylation of lovastatin", "assay_type": "biochemical", "conditions": "2 to 200 μM statin", "protocol": "(§3) The 6′β-hydroxylation rates of simvastatin (A) and lovastatin (B) were measured in reaction mixtures consistingof 50 pmol CYP102A1 in 0.25 ml of 100 mM potassium phosphate buffer (pH 7.4) along with a specified amount of substrate (2 to 200 μM of statins)\n(§4) It was examined whether CYP102A1 and mutants thereof can oxidize simvastatin and lovastatin. Typical steady-state reactions for the oxidation of simvastatin and lovastatin included 50 pmol CYP102A1 in 0.25 ml of 100 mM potassium phosphate buffer (pH 7.4) along with a specified amount of substrate. To determine the kinetic parameters of several CYP102A1 mutants, 2 to 200 μM of statins were used. An aliquot of a NADPH-generating system was used to initiate reactions (final concentrations: 10 mM glucose 6-phosphate, 0.5 mM NADP+, and 1 IU yeast […]). A stock solution of statins (20 mM) was prepared in DMSO and diluted into the enzyme reactions with a final organic solvent concentration of <1% (v/v).\n(§5) The kinetic parameters (Km and kcat) were determined using nonlinear regression analysis with GraphPad PRISM software (GraphPad, San Diego, Calif.). […]"}, "[5]": {"assay": "Oxidation of lovastatin by CYP102A1 wild type/mutants and human CYP3A4, product formation rate (turnover number)", "assay_type": "biochemical", "conditions": "100 μM lovastatin; mean±SD of triplicate; N.D. = less than 0.001", "protocol": "as §4\n(§6) In the case of human CYP3A4 activity assay, a control experiment of 50 pmol P450, 100 pmol NADPH-P450 reductase (CPR), 100 pmol cytocrhome b5, and 45 μM L-α-dilauroyl-sn-glycero-3-phosphocholine (DLPC) was used instead of 50 pmol CYP102A1. After the solution was incubated for 30 minutes at 37° C., the reaction was terminated with 2-fold of ice-cold dichloromethane.\n(§7) After centrifugation of the reaction mixture, the supernatant was carefully removed and the solvent was evaporated under N2 gas as described in Vickers et al., 1990. The products were analyzed by HPLC using a Gemini C18 column (4.6 mm×150 mm, 5 μm, Phenomenex, Torrance, Calif.) with a mobile phase of acetonitrile/water (70/30, v/v) containing 2.5 mM formic acid. Eluates were detected by UV at 238 nm.\n(§8) First, the ability of wild-type and a set of P450 BM3 mutants to oxidize simvastatin and lovastatin was measured at a fixed substrate concentration (100 μM). While simvastatin and lovastatin are known to produce at least four and three metabolites, respectively, CYP102A1 mutants produced only two metabolites, one major (6β-OH statin) and one minor (6′-exomethylene statin) metabolites. The metabolites were analyzed by HPLC and compared to those of human CYP3A4 (FIGS. 1 and 2). Since there is no need to comprise a separate step of the 6′β-OH statin and 6′-exomethylene statin from other products, the use of wild-type and mutant CYP102A1 is beneficial.\n(§9) Assays were performed using 100 μM simvastatin or lovastatin. Values are the mean±SD of triplicate determinations."}, "[6]": {"assay": "Oxidation of simvastatin by CYP102A1 wild type/mutants and human CYP3A4, product formation rate (turnover number)", "assay_type": "biochemical", "conditions": "100 μM simvastatin; mean±SD of triplicate; N.D. = less than 0.001", "protocol": "as §4, §6, §7, §8, §9"}, "[7]": {"assay": "Total turnover numbers of 6′β-OH product formation, lovastatin", "assay_type": "biochemical", "conditions": "total 1.0 mM statin, 37° C., 4 hours", "protocol": "In order to measure the total turnover numbers (TTNs; mol product/mol catalyst) of mutant CYP102A1, total 1.0 mM statin was used. The reaction was initiated by the addition of the NADPH-generating system in the presence of 500 μM substrate and incubated at 37° C. for 4 hours. After 2 hours of incubation, the 500 μM substrate was added to the reaction mixture. […]"}, "[8]": {"assay": "Kinetic parameters of 6′β-hydroxylation of simvastatin", "assay_type": "biochemical", "conditions": "2 to 200 μM statin", "protocol": "as §3, §4, §5"}, "[9]": {"assay": "Total turnover numbers of 6′β-OH product formation, simvastatin", "assay_type": "biochemical", "conditions": "total 1.0 mM statin, 37° C., 4 hours", "protocol": "In order to measure the total turnover numbers (TTNs; mol product/mol catalyst) of mutant CYP102A1, total 1.0 mM statin was used. The reaction was initiated by the addition of the NADPH-generating system in the presence of 500 μM substrate and incubated at 37° C. for 4 hours. After 2 hours of incubation, the 500 μM substrate was added to the reaction mixture. The formation rate of simvastatin metabolites was determined by HPLC chromatograms."}},
  "note": "Values joined by “and” are separate entries in the source; they are usually repeats but may differ in a detail not shown here. Identical values can stand only once.",
  "data": [
    {"molecule": "O=c1cc(-c2ccccc2)oc2c1ccc1ccccc12", "note": "[αNF, 7,8-benzoflavone]", "values": [
      {"measurement": "Effect on metabolism of acetaminophen and 3,4-methylenedioxymethylamphetamine", "setting": "[1]", "value": "did not have a significant effect"},
      {"measurement": "Inhibition of 6′β-hydroxylation activity of lovastatin", "setting": "[2]; 100 μM lovastatin", "value": 76, "unit": "%"},
      {"measurement": "Inhibition of 6′β-hydroxylation activity of simvastatin", "setting": "[2]; 100 μM simvastatin", "value": 77, "unit": "%"},
      {"measurement": "Inhibition of 6′β-hydroxylation activity of lovastatin", "setting": "[3]; 100 μM lovastatin", "value": 48, "unit": "%"},
      {"measurement": "Inhibition of 6′β-hydroxylation activity of simvastatin", "setting": "[3]; 100 μM simvastatin", "value": 44, "unit": "%"}
    ]},
    {"molecule": "Human CYP3A4: human cytochrome P450 3A4, reconstituted with NADPH-P450 reductase, cytochrome b5 and DLPC", "values": [
      {"measurement": "Km", "setting": "[4]", "value": "54 ± 15", "unit": "µM"},
      {"measurement": "kcat, 6′β-hydroxylation of lovastatin", "setting": "[4]", "value": "0.07 s⁻¹ and 0.07 ± 0.0083 s⁻¹"},
      {"measurement": "Lovastatin 6β′-OH product formation rate", "setting": "[5]", "value": "6.5 ± 0.3 nmol product/min/nmol P450"},
      {"measurement": "Lovastatin 6′-Exomethylene product formation rate", "setting": "[5]", "value": "0.43 ± 0.01 nmol product/min/nmol P450"},
      {"measurement": "Simvastatin 6β′-OH product formation rate", "setting": "[6]", "value": "3.0 ± 0.1 nmol product/min/nmol P450"},
      {"measurement": "Simvastatin 6′-Exomethylene product formation rate", "setting": "[6]", "value": "0.22 ± 0.01 nmol product/min/nmol P450"},
      {"measurement": "Total turnover number of 6′β-OH product formation, lovastatin", "setting": "[7]", "value": "44 ± 6", "unit": "nmol product/nmol P450"},
      {"measurement": "Km", "setting": "[8]", "value": 130, "unit": "µM"},
      {"measurement": "kcat, 6′β-hydroxylation of simvastatin", "setting": "[8]", "value": "0.11 s⁻¹ and 0.11 ± 0.015 s⁻¹"},
      {"measurement": "Total turnover number of 6′β-OH product formation, simvastatin", "setting": "[9]", "value": "35 ± 5", "unit": "nmol product/nmol P450"}
    ]},
    {"molecule": "BM3 WT: wild-type bacterial cytochrome P450 BM3 (CYP102A1), Seq ID No. 16 (protein, listed as Bacillus megaterium) TIKEMPQPKTFGELKNLPLLNTDKPVQALMKIADELGEIFKFEAPGRVTRYLSSQRLIKEACDESRFDKNLSQALKFVRDFAGDGLFTSWTHEKNWKKAHNILLPSFSQQAMKGYHAMMVDIAVQLVQKWERLNADEHIEVPEDMTRLTLDTIGLCGFNYRFNSFYRDQPHPFITSMVRALDEAMNKLQRANPDDPAYDENKRQFQEDIKVMNDLVDKIIADRKASGEQSDDLLTHMLNGKDPETGEPLDDENIRYQIITFLIAGHETTSGLLSFALYFLVKNPHVLQKAAEEAARVLVDPVPSYKQVKQLKYVGMVLNEALRLWPTAPAFSLYAKEDTVLGGEYPLEKGDELMVLIPQLHRDKTIWGDDVEEFRPERFENPSAIPQHAFKPFGNGQRACIGQQFALHEATLVLGMMLKHFDFEDHTNYELDIKETLTLKPEGFVVKAKSKKIPLGGIPSPSTEQSAKKVRKKAENAHNTPLLVLYGSNMGTAEGTARDLADIAMSKGFAPQVATLDSHAGNLPREGAVLIVTASYNGHPPDNAKQFVDWLDQASADEVKGVRYSVFGCGDKNWATTYQKVPAFIDETLAAKGAENIADRGEADASDDFEGTYEEWREHMWSDVAAYFNLDIENSEDNKSTLSLQFVDSAADMPLAKMHGAFSTNVVASKELQQPGSARSTRHLEIELPKEASYQEGDHLGVIPRNYEGIVNRVTARFGLDASQQIRLEAEEEKLAHLPLAKTVSVEELLQYVELQDPVTRTQLRAMAAKTVCPPHKVELEALLEKQAYKEQVLAKRLTMLELLEKYPACEMKFSEFIALLPSIRPRYYSISSSPRVDEKQASITVSVVSGEAWSGYGEYKGIASNYLAELQEGDTITCFISTPQSEFTLPKDPETPLIMVGPGTGVAPFRGFVQARKQLKEQGQSLGEAHLYFGCRSPHEDYLYQEELENAQSEGIITLHTAFSRMPNQPKTYVQHVMEQDGKKLIELLDQGAHFYICGDGSQMAPAVEATLMKSYADVHQVSEADARLWLQQLEEKGRYAKDVWAG", "values": [
      {"measurement": "Lovastatin 6β′-OH product formation rate", "setting": "[5]", "value": "N.D. (not detectable(the rate of product formation was less than 0.001 nmol product/min/nmol P450))"},
      {"measurement": "Lovastatin 6′-Exomethylene product formation rate", "setting": "[5]", "value": "N.D. (not detectable(the rate of product formation was less than 0.001 nmol product/min/nmol P450))"},
      {"measurement": "Simvastatin 6β′-OH product formation rate", "setting": "[6]", "value": "0.0049 ± 0.0017 nmol product/min/nmol P450"},
      {"measurement": "Simvastatin 6′-Exomethylene product formation rate", "setting": "[6]", "value": "N.D. (not detectable(the rate of product formation was less than 0.001 nmol product/min/nmol P450))"},
      {"measurement": "Total turnover number of 6′β-OH product formation, lovastatin", "setting": "[7]", "value": "1.9 ± 0.6", "unit": "nmol product/nmol P450"},
      {"measurement": "Total turnover number of 6′β-OH product formation, lovastatin", "setting": "[7]; listed as wild-type CYP102A1", "value": 1.9, "unit": "nmol product/nmol P450"},
      {"measurement": "Total turnover number of 6′β-OH product formation, simvastatin", "setting": "[9]", "value": "0.77 ± 0.04", "unit": "nmol product/nmol P450"},
      {"measurement": "Total turnover number of 6′β-OH product formation, simvastatin", "setting": "[9]; listed as wild-type CYP102A1", "value": 0.77, "unit": "nmol product/nmol P450"}
    ]}
  ]
}
